32 sequences from the supplement of paper PMC9170038 can be followed below.

In this data set the test system is MS2 coat protein. Put plainly: apparent KD of MS2 coat protein; designed switch direction (-1 OFF switch, 1 ON switch): -1; higher = weaker reporter binding. Summed up:
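The reported apparent KD is a per-design median over clusters, from curve fits of normalised cluster fluorescence. Protein titrations used SNAP-549-labelled MS2 coat protein, doubled from 0.7 or 1.5 nM to 3 µM, in Tris-HCl pH 7.5 buffer with KCl, MgCl2, BSA, DTT, tRNA and Tween-20, with no input, 200 uM small-molecule ligand, or an oligonucleotide input. The RNA switches were transcribed on Illumina chips by stalled E. coli RNA polymerase.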

Where [1] appears, read: Eterna round: R95, input ligand: microRNA oligo, concentration not stated.
Where [2] appears, read: input ligand: microRNA oligo, concentration not stated.
The mark [3] stands for this setting: Eterna round: R95, input ligand: FMN 200 uM.
Where [4] appears, read: Eterna round: R95, input ligand: none.

As for “GGUUUGGGAGGAUAUGGUUUUAAUAACAUGAGGAUCACCCAUGUAAAUAGAUCCUCAAGGCCAGAAGGCUCAAACC [-26.1, -25.22 kcal, A 33%] (Eterna round: R97, puzzle: Exclusion 5)”, the “apparent KD of MS2 coat protein” value by setting is: (input ligand: FMN 200 uM) 212 nM; (input ligand: none) 1980 nM.
“ACACGGCGAGGAUAUACAUGAGGAUCACCCAUGUGUCGGCCGGUACGGUAGCACUAGUGUAGAAGGCGCAUUGG [EX3 #38] (Eterna round: R97, puzzle: Exclusion 3)”: the “apparent KD of MS2 coat protein” value reads like this: (input ligand: FMN 200 uM) 28.1 nM; (input ligand: none) 31.1 nM.
Turning to “GGUGGACAUGAGGAUCACCCAUGUGAGGAUAUCGGCCGGUUCGUGGUGGCUGGCUUCUCGAGAAGGCGCAUAGU [Exclusion 1 V74] (puzzle: Exclusion 1)”, the “apparent KD of MS2 coat protein” value under setting [1] stood at 46.4 nM.
In the case of “GUCCUCAUGACAUGAGGAUCACCCAUGUAUUAUUUGGUAACUGAGGAUAUACUUUUAAUGUUUAUGUAGAAGGCAGAUACGGUU [JR_ExcNG3_Sub018] (Eterna round: R96, puzzle: Exclusion NG 3)”, the “apparent KD of MS2 coat protein” value was 197 nM (input ligand: FMN 200 uM), 53 nM under setting [2] and 62.3 nM (input ligand: none).
With “GGUUGGCGAGGAUAUACAUGAGGAUCACCCAUGUGAGAGAAGAAAGUGAGAACGAAAAGUAGAAGGCGCUGACG [salish99_ex3_r3_060] (puzzle: Exclusion 3)”, the “apparent KD of MS2 coat protein” value is 2.08 nM under setting [3], 43.8 nM under setting [1] and 90.2 nM under setting [4].
For “UAUUAACAGGCAAGAUCCCACAUGAGGAUCACCCAUGUGCUCGUCUUAUAAGGUACUGUGACGAAAGUCACGGUACC [Sensor 3, v1 - 82] (puzzle: Sensor v3, turn-off variant 1)”, the “apparent KD of MS2 coat protein” value reads like this: under setting [3], 23.2 nM; under setting [1], 589 nM; under setting [4], 29.4 nM.
“CCGGAAAUACAGGAUAUAGGAGUCGAUAGACUCCUAGAAGGGUAUACAUGAGGAUCACCCAUGUGUCCUACCGG [Fiskers Ex 6 - 70] (puzzle: Exclusion 6)”: the “apparent KD of MS2 coat protein” value under setting [1] turned out to be 22.8 nM.
On to “AUAAUAAAGGAGGAUAUCGUUACGGAAACGUAACGAGAAGGUCUAACAUGAGGAUCACCCAUGUUCCUCAAAUA [Mat - Exclusion 6 - Eli Mod - D53] (puzzle: Exclusion 6)”, for which the “apparent KD of MS2 coat protein” value reads like this: under setting [3], 49.9 nM; under setting [1], 36.4 nM; under setting [4], 37.4 nM.
Regarding “CCGCUACAUGAGGAUCACCCAUGUCAGGAUAUCGUACGUUCGUCGAUAGACGAUCGUACGAGAAGGGUGUGCGG [Mat - Exclusion 1 - Eli Mod - D36] (Eterna round: R97, puzzle: Exclusion 1)”, the “apparent KD of MS2 coat protein” value is 81.4 nM (input ligand: FMN 200 uM) and 139 nM (input ligand: none).
For “AGCGAAGAGACAGGAUAUGAGAAUAGAUAGAACUCAGAAGGGUCACAUGAGGAUCACCCAUGUAAAGUCUUGAGGCUGCGUGGU [Prohibition 9 - Jieux - Exclusion NG 1] (Eterna round: R96, puzzle: Exclusion NG 1)”, the “apparent KD of MS2 coat protein” value worked out at 141 nM (input ligand: FMN 200 uM), 50.7 nM under setting [2] and 71.9 nM (input ligand: none).
On to “GUCAGGAAAGGAUAUACAAGUAGUCACUCUCUUUGCAGUUCACAUGAGGAUCACCCAUGUAGAAGGUUCGGACG [EX2 C.9] (Eterna round: R97, puzzle: Exclusion 2)”, for which the “apparent KD of MS2 coat protein” value (input ligand: FMN 200 uM) was 38.9 nM and the “apparent KD of MS2 coat protein” value (input ligand: none) was found to be 14.1 nM.
For “GGUAGAGUGGCAGGAUAUCCGUCUGUUUCAGUCGGAGAAGGGCCACAGUCACUGGGUCCAAAUAUGGGUGACCAUGUAUCUACC [pwkr exNG1 F6.4] (Eterna round: R96, puzzle: Exclusion NG 1)”, the “apparent KD of MS2 coat protein” value (input ligand: FMN 200 uM) is 22 nM, the “apparent KD of MS2 coat protein” value under setting [2] came to 28.4 nM and the “apparent KD of MS2 coat protein” value (input ligand: none) worked out at 34.8 nM.
The corresponding values for “UGUUGUCGCGCAGGAUAUGUAUGAGGAUCACCCAUAAGAGUAUAUUUACCAUGAGGAUCACCCAUGUAGAAGGGCGGGACAACA [pwkr exNG2 2xF5 1xFMN.11] (Eterna round: R96, puzzle: Exclusion NG 2)” are 105 nM, 46.6 nM and 73.6 nM.
As for “CCCAGAGCGUAAGGAUAUACAUGAGGAUCACCCAUGUCUACAAUAAUAGUACUAUAUGAAGUCGUGUAGAAGGUACGCGCAGGU [Eternabot solution 46] (Eterna round: R96, puzzle: Exclusion NG 2)”, under setting [2], the “apparent KD of MS2 coat protein” value was 30.7 nM.
Regarding “GGUUGGCGAGGAUAUACAUGAGGAUCACCCAUGUGGUCCUGUGGCUGAUCAAGCCUAUGUAGAAGGCGCAAAUC [salish99_ex3_r4_012] (Eterna round: R97, puzzle: Exclusion 3)”, the “apparent KD of MS2 coat protein” value runs as follows: (input ligand: FMN 200 uM) 137 nM; (input ligand: none) 257 nM.
For “ACAAGCUUUUUGUUCGUCUUAUACACUCCUAAGAGGACAACAUGAGGAUCACCCAUGUAACAAAGACGAACUCAUGU [Sesor Array 10 - Jieux - Sensor v3, turn-off variant 2] (puzzle: Sensor v3, turn-off variant 2)”, the “apparent KD of MS2 coat protein” value was 14.3 nM under setting [3], 96.3 nM under setting [1] and 11.4 nM under setting [4].
Regarding “AAGAAACAUGAGGAUCACCCAUGUGAGGAUAUGAGUAAGAAAAGAAAAGAAAGAAGAAUCAGAAGGCACAAAGG [salish99-ex1_r3_048] (puzzle: Exclusion 1)”, the “apparent KD of MS2 coat protein” value turned out to be 55.2 nM under setting [3], 38.3 nM under setting [1] and 38.3 nM under setting [4].
With “CCGUCGAUAGGAUAUACUCCAAGCGAUGGGUGAACCUUUGGACUUGAGGAUCACCCAAGUAGAAGGAUUGACUU [Aorbete] (Eterna round: R97, puzzle: Exclusion 2)”, the “apparent KD of MS2 coat protein” value by setting is: (input ligand: FMN 200 uM) 122 nM; (input ligand: none) 71 nM.
In the same order, the values of “CUCCAGCAAGGAUAUACAUAGUGACGUCUGUUUAAUCUUAAACAUGAGGAUCACCCAUGUAGAAGGUGCGUCAC [Biqugeza] (Eterna round: R97, puzzle: Exclusion 2)” are 19.4 nM and 17.1 nM.
As to “GGUGCGUAUGUGAGGAUAUGCUGGUCCUUGGCUCGGCAGAAGGCACAUGAGGAUCACCCAUGUGGUGUCGUACA [salish99_Bmod_ex4_072] (puzzle: Brourd's mod of Exclusion 4)”, under setting [1], the “apparent KD of MS2 coat protein” value came out at 73.5 nM.
Still for that read-out and setting: under “AAUGCCGUAGGAUAUAUAUGGCAGAUCGCACGUCCUGAAAGACAUGAGGAUCACCCAUGUAGAAGGGCGGAAAC [Ceisisan] (puzzle: Exclusion 2)” stands 14.1 nM; under “GUGGUACAUGAGGAUCACCCAUGUUAGGAUAUCGCGUGAGGUUUUGCUUCCGCGCGCGCGAGAAGGGACGUCUU (puzzle: Exclusion 1)”, 23.2 nM.
As to “UUUAAUUUUUUUUUUUUACAAGCUUUUUGCUCGUCUUAUACAUGAGGAUCACCCAUGUAAAUGGAAGAUAAAUUAUC [JMF 7] (puzzle: Sensor v3, turn-off variant 2)”, the “apparent KD of MS2 coat protein” value by setting is: under setting [3], 16.7 nM; under setting [1], 18.1 nM; under setting [4], 17.3 nM.
As for “GAUCAACAUGAGGAUCACCCAUGUGAGGAUAUGUAUCAUAGAUCUUCGGAUCUAUGAUACAGAAGGCAUGUGGA [Ex1-3: 100c] (puzzle: Exclusion 1)”, the “apparent KD of MS2 coat protein” value under setting [1] is 144 nM.
On to “UUUUCUUUUGUGAGGAUAUACUUGUUUUUUUUUUUGUAGAAGGCACAUGAGGAUCACCCAUGUUUUCUUUUCUG [JR_BME4_Sub026] (puzzle: Brourd's mod of Exclusion 4)”, for which, under setting [1], the “apparent KD of MS2 coat protein” value came out at 20.6 nM.
For “CCGGAAUUGGAGGAUAUAGGAGUCGAUAGACACCUAGAAGGUCAGACAUGAGGAUCACCCAUGUGUCCUACCGG [Fiskers Ex 6 - 87] (puzzle: Exclusion 6)”, the “apparent KD of MS2 coat protein” value stood at 19.9 nM under setting [3], 18.3 nM under setting [1] and 17.8 nM under setting [4].
As to “UGGUGGAAGCAGGAUAUGCUUGUUUUAUUGAUUGCAGAAGGGCUAACAUGAGGAUCACCCAUGUAAGAGGUGUU [JR_E6_Sub055] (puzzle: Exclusion 6)”, under setting [1], the “apparent KD of MS2 coat protein” value amounted to 303 nM.
Regarding “AGUCCUGCGGUGAGGAUAUAUUUGUAGCCAUUCAGGUAGAAGGCACUUGAGGAUCACCCAAGUAAAGAACCAAC [Releat] (Eterna round: R97, puzzle: Brourd's mod of Exclusion 4)”, the “apparent KD of MS2 coat protein” value worked out at 39 nM (input ligand: FMN 200 uM) and 28 nM (input ligand: none).
As to “UUUAUGUCAGGAUAUGAGUAGUAGAACAAUAGUACUACUACUCAGAAGGGACAUGAGGAUCACCCAUGUGCCUC [Fiskers Ex 4 Super stable 44 mod 22] (Eterna round: R96, puzzle: Exclusion 4)”, the “apparent KD of MS2 coat protein” value by setting is: (input ligand: FMN 200 uM) 326 nM; under setting [2], 32.3 nM; (input ligand: none) 40.4 nM.
With “GUUAAACAUGAGGAUCACCCAUGUAAGGAUAUGCUGCGGUAGAGAUGAAGUGAAUGCAGCAGAAGGUACAAUUG [Mat - Mod of JL D54] (puzzle: Exclusion 1)”, the “apparent KD of MS2 coat protein” value under setting [1] is 80.5 nM.
For “UAGUAUCUUCAGGAUAUCAGUGGAAAACACGUAUGAGAAGGGAAGACAUGAGGAUCACCCAUGUAAAGGGUCCG [BotMod 11 - Jieux - Exclusion 6] (Eterna round: R97, puzzle: Exclusion 6)”, the “apparent KD of MS2 coat protein” value turned out to be 579 nM (input ligand: FMN 200 uM) and 203 nM (input ligand: none).
As for “GGUUGACAUGAGGAUCACCCAUGUGAGGAUAUGCGAGAGAAAAAAGUGAGGAAGAAACGCAGAAGGCGCUGUCG [salish99-ex1_r3_010] (puzzle: Exclusion 1)”, the “apparent KD of MS2 coat protein” value by setting is: under setting [3], 59.3 nM; under setting [1], 163 nM; under setting [4], 133 nM.
